Common to all, as to test: SPR, antibody captured, C2 as analyte;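 note: biacore SPR at 37 °C, anti-C2 mAbs captured via goat anti-human IgG on CM5 chips, double-referenced sensorgrams fit to a 1:1 kinetic or steady-state model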
In assay [1] the target is T1, human C2 F437A (human, UniProt P06681 21-752).
T1 sequence: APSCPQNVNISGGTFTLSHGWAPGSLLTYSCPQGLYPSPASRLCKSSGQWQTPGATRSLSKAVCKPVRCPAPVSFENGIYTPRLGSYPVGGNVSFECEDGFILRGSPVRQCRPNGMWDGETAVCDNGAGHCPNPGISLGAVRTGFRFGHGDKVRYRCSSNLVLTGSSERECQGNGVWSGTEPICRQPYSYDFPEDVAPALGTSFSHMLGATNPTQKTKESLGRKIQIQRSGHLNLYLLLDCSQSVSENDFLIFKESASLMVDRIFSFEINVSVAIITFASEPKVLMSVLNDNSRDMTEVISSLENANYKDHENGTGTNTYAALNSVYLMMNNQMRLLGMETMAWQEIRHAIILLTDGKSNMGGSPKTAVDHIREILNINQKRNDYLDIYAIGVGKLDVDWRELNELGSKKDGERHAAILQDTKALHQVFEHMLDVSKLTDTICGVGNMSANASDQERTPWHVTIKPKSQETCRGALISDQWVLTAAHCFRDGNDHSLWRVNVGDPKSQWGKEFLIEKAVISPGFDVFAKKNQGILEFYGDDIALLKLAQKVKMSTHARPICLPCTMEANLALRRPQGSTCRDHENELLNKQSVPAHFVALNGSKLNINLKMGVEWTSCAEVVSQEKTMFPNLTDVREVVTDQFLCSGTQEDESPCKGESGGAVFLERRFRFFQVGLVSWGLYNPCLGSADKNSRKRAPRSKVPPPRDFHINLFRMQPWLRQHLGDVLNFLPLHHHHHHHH

Assay [2] addresses T2, human C2 Y328A (human, UniProt P06681 21-752).
T2 sequence: T1 sequence with Y308A, A417F

For assay [3], the target named is T3, human C2 P486A (human, UniProt P06681 21-752).
T3 sequence: T1 sequence with A417F, P466A

For assay [4], the target named is T4, human C2 K485A (human, UniProt P06681 21-752).
T4 sequence: T1 sequence with A417F, K465A

Numbering of substitutions follows the chain as printed.

B1: RF16-226 (antibody, human IgG4 S228P, lambda)
heavy: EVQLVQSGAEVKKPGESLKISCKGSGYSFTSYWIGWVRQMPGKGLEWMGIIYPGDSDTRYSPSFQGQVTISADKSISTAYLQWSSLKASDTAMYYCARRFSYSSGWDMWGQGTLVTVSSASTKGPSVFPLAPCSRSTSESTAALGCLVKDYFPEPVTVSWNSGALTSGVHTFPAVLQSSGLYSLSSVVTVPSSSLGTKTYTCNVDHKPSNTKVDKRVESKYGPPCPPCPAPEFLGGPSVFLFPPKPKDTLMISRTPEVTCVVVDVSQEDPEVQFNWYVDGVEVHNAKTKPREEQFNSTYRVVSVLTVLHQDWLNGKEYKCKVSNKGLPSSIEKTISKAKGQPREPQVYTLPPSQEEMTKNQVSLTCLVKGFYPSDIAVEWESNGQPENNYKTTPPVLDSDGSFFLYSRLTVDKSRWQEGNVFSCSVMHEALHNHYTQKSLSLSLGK
light: SYELTQPPSVSVSPGQTARITCSGDALTSKYVAWYQQKSGLAPLLVIYEDTRRPSGIPAKFSGSSSGSVATLTISGAHGDDEADYYCYSTDASGHQRVFGGGTKLTVLSQPKAAPSVTLFPPSSEELQANKATLVCLISDFYPGAVTVAWKADGSPVKAGVETTKPSKQSNNKYAASSYLSLTPEQWKSHRSYSCQVTHEGSTVEKTVAPTECS
notes: pH-dependent anti-C2 antibody from a phage display library; also called WT
On to B1, for which the Kd was 260 nM in assay [1], 78.4 nM in assay [2], 11.1 nM in assay [3] and 12.5 nM in assay [4].

By Kd is commonly meant the constant that tells how readily two partners part at equilibrium. Read a low Kd as a tighter complex.

The values are drawn from patent US20220332804A1 (CSL INNOVATION, published 2022).
